Consider one molecule from patent US20210263001A1, “IMMOBILIZED ENZYMES AND MICROSOMES ON MAGNETIC SCAFFOLDS” (ZYMtronix Catalytic Systems, Inc., priority 2018, published 2021).

In this experiment the target is T1, UGT1A6 (Homo sapiens, UniProt P19224).
T1 construct: purchased Corning 456416
T1 sequence (P19224 27-532): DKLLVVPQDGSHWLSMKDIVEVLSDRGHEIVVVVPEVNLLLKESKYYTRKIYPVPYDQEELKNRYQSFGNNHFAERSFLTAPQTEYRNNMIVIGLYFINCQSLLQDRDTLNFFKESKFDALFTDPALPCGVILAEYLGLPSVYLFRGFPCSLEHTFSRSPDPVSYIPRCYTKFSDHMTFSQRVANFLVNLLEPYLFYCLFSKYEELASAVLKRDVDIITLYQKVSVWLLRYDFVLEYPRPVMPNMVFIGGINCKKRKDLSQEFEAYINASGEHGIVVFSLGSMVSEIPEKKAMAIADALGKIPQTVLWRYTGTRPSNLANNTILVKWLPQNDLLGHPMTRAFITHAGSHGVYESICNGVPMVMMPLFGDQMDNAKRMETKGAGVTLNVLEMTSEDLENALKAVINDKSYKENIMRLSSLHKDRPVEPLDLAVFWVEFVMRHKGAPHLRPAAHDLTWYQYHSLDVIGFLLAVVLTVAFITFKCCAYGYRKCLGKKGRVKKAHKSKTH
Description: Activity of UGT1A6 immobilized on magnetite powder, BioVision fluorometric UGT activity assay (Example 10). The format is biochemical. To be noted: 2 hours, 37° C., 500 μl reaction. The method, then: The UGT1A6 stock (5 mg/mL) was rapidly thawed in a […] and diluted in cold 50 mM Tris pH 7.0 to a final concentration of 25 μg/ml. 500 μl of UGT1A6 solution was added to 5 mg of magnetite powder and incubated for 1 hour at 4° C. with shaking. The immobilization yield was quantified by the Bradford method (Bradford reagent: Quick Start™ Bradford 1× Dye Reagent #5000205 from BioRad) by comparing it to UGT1A6 enzyme standards.
A fluorometric assay (BioVision UGT Activity Assay/Ligand Screening Kit, Cat #K692) was used to measure the activity of the free and immobilized UGT1A6. The assay utilizes a highly fluorescent UGT substrate and measures UGT activity by tracking the drop in fluorescence emission as the substrate is converted into a non-fluorescent glucuronide. UGT specific activity is calculated by comparing the fluorescence loss versus a control reaction performed in the absence of the required cofactor UDPGA. Duplicate reactions were performed in 0.5 dram glass vials (VWR® Vials, Borosilicate Glass, with Phenolic Screw Cap) with 500 μl reaction volumes at 37° C. with shaking for 2 hours. UGT1A6 reactions contained BioVision UGT Assay buffer with Alamethicin, BioVision UGT subtrate and the UDPGA cofactor. […] The product was detected by fluorescence at Ex/Em=415/502 nm and quantitated by comparing the drop in fluorescence to a standard curve of UGT substrate fluorescence.

B1: free UGT: Non-immobilized Corning Supersomes Human UGT1A6 enzyme (protein, UniProt P19224 27-532, looked up)
UDP-glucuronosyltransferase …: T1 sequence (P19224 27-532)
modifications: Supersomes microsomal preparation
notes: Non-immobilized Corning Supersomes Human UGT1A6 enzyme
Regarding B1, the “BioVision UGT Activity Assay substrate consumed (average)” value is 0.58 ± 0.39 nmol.
